In doi:10.1101/2025.06.20.660723:

Target: Lhcb2 of Posidonia oceanica, threonine-phosphorylated (Posidonia oceanica (endogenous in leaves))

With “Lhcb1 of Posidonia oceanica (natural protein)” the stoichiometry N (Lhcb1 per Lhcb2) was 2.
